Data on two molecules can be found in paper PMC6380343, “Interactions and activities of factors involved in the late stages of human 18S rRNA maturation” (RNA Biology, 2019).

For one test, the target named is T1, His-tagged NOB1 (human, UniProt Q9ULX3 1-412).
T1 construct: also called His-NOB1; source: E. coli BL21 Codon Plus, purified (Ni-NTA, desalted); not shown: His6, N-terminal, kept
T1 sequence (looked up): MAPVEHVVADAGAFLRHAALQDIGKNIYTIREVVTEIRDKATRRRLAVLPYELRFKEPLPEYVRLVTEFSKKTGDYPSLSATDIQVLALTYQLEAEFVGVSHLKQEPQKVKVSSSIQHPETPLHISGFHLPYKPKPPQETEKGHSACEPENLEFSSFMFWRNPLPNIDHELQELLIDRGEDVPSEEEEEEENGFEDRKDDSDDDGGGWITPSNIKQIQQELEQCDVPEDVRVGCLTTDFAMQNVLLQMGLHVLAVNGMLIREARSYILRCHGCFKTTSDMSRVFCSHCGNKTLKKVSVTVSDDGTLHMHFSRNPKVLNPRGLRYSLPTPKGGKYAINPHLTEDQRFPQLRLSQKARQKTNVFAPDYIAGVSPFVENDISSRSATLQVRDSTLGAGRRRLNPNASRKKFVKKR
As to the kind of experiment: pull-down; 50 ng GST-tagged bait with equal amounts of His-tagged or untagged prey; 50 mM Tris-HCl pH 8.0, 10% glycerol, 300 mM NaCl, 5 mM MgCl2, 0.1% Tween20; 1 h at 4°C; glutathione sepharose; western blotting. The settings on record: both partners purified.

For a further test, the target named is T2, GST-tagged RIO2 (human, UniProt Q9BVS4-1 1-552).
T2 construct: also called GST-RIO2; source: E. coli BL21 Codon Plus, purified (glutathione sepharose, desalted); not shown: GST, N-terminal, kept
The description is as above. The conditions noted are these: both partners purified.

T2 sequence (Q9BVS4 whole entry): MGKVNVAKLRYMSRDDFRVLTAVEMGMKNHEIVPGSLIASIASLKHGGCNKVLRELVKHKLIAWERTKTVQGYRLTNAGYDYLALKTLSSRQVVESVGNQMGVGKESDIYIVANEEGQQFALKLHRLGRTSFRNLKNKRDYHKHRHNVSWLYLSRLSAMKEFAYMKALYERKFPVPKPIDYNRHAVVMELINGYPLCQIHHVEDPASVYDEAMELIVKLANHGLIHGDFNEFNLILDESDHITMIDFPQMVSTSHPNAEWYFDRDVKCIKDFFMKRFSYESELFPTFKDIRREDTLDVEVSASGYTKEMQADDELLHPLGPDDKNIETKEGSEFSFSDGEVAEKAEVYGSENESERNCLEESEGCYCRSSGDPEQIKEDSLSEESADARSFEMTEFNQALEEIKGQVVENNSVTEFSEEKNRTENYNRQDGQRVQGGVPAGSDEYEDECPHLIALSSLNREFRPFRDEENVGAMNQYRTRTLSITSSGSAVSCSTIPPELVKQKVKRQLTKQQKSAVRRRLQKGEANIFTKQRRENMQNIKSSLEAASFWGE

B1: GST-tagged PNO1 (natural protein)
chain: not shown
notes: also called GST-PNO1; source: E. coli BL21 Codon Plus, purified (glutathione sepharose, desalted); not shown: GST, N-terminal, kept
B1: in the test with His-tagged NOB1, the binding result is “binds”.

B2: His-tagged DIM1 (natural protein, human, UniProt Q9UNQ2 1-313, looked up)
chain: MPKVKSGAIGRRRGRQEQRRELKSAGGLMFNTGIGQHILKNPLIINSIIDKAALRPTDVVLEVGPGTGNMTVKLLEKAKKVVACELDPRLVAELHKRVQGTPVASKLQVLVGDVLKTDLPFFDTCVANLPYQISSPFVFKLLLHRPFFRCAILMFQREFALRLVAKPGDKLYCRLSINTQLLARVDHLMKVGKNNFRPPPKVESSVVRIEPKNPPPPINFQEWDGLVRITFVRKNKTLSAAFKSSAVQQLLEKNYRIHCSVHNIIIPEDFSIADKIQQILTSTGFSDKRARSMDIDDFIRLLHGFNAEGIHFS
notes: also called His-DIM1; source: E. coli BL21 Codon Plus, purified (Ni-NTA, desalted); not shown: His6, N-terminal, kept
With B2, the binding result in the test with GST-tagged RIO2 was “binds”.
